This note sets out measurements from patent publication US11351270B2, “Junctophilin-2 fragments and uses therefor” (University of Iowa Research Foundation, priority 2016, dated 2022).

The subject of experiment [1] is chromatin. Nature of the experiment: Biochemical fractionation for chromatin association. The class given is cell-based. Conditions: MNASE digestion, Western blot. An excerpt:
FIGS. 10A-D. JP2NT contains a NLS and a chromatin/DNA-binding domain. A-B) A conserved NLS in JP2 N-terminus is essential for nuclear accumulation of JP2NT. a-c, Subcellular localization of eGFP and eGFP-fused JP2 and eGFP-JP2NT in 293T cells. Full length JP2 localizes on both plasma membrane and ER network (b). […] C-D) JP2NT associates with chromatin. a, Schematic of the subcellular fractionation approach (adapted from Wisoka et al 2001). b, Subnuclear distribution of JP2NT and fragments/mutants. JP2NT is present in both soluble nuclear (S3) and chromatin fractions (S4). Deletion of the MORN domains (JP2NT JP2NT^ΔMORNs) had no effect on subnuclear distribution of JP2NT. However, the amount of chromatin-associated JP2NT was decreased by deletion of the bNLS alone (JP2NT^ΔMORNs/ΔbNLS), deletion of the ARR alone (JP2 JP2NT^ΔMORNs/ΔARR), or deletion of both the bNLS and ARR (JP2^ΔMORNs/ΔbNLS/ΔARR and JP2NT^ΔbNLS/ΔARR). Histone H3: chromatin marker.
Ultracentrifuge based protein fractionation was performed following the protocol described previously (van Berlo et al., 2013). For some experiments, the soluble nuclear fraction (Nu-S) was separately extracted using nuclear extraction buffer (NEB) from the Tissue subcellular fractionation kit of Thermo Scientific, and the remaining insoluble fraction was subjected to MNASE digestion for chromatin fraction extraction. […]
Background: A western blot detects proteins with antibodies after separation by electrophoresis.

Experiment [2] relates to pressure overload hypertrophy and heart failure. Nature of the experiment: Transaortic banding (TAB) pressure overload in JP2NT-OE mice. The class given is in vivo, mouse. The procedure:
Animal experiments were performed in accordance with the Guide for the Care and Use of Laboratory Animals (National Institutes of Health publication 85-23, revised 1996) and were approved by the Institutional Animal Care and Use Committee at the University of Iowa. Cardiac specific JP2NT overexpression vector was constructed by subcloning mouse JP2NT cDNA (Guo et al., 2015) into a tet-operated αMHC transgenic vector, as described previously (Guo et al., 2014). The oocyte injection of transgenic vectors was carried out by University of Iowa transgenic core. The injected oocytes were transferred to pseudopregnant recipients. Transgenic offsprings were backcrossed with C57BL/6J mice for >9 generations to generate transgenic mice in a C57BL/6J background. These transgenic mice were crossed with αMHC-tTA (C57 background) (Guo et al., 2014) to generate double transgenic mice (JP2NT-OE) carrying both αMHC-JP2NT and αMHC-tTA. The non-overexpression single transgenic littermates were used as control. PCR was used to determine the genotype of transgenic mice. Nine to 10-wk-old male JP2NT-OE mice and their control littermates were subjected to pressure overload by transaortic banding (TAB) surgery, as described (Guo et al., 2014). Transthoracic echocardiograms were performed with conscious mice in the University of Iowa Cardiology Animal Phenotyping Core Laboratory, using a Vevo 2100 Imager (Visual Sonics), as described previously (Cheng et al., 1993).

In experiment [3] the target is T1, MEF2C (Homo sapiens, UniProt Q06413).
T1 construct: expressed in transfected cells; host or cells: 293 cells
T1 sequence (Q06413 whole entry, species assumed): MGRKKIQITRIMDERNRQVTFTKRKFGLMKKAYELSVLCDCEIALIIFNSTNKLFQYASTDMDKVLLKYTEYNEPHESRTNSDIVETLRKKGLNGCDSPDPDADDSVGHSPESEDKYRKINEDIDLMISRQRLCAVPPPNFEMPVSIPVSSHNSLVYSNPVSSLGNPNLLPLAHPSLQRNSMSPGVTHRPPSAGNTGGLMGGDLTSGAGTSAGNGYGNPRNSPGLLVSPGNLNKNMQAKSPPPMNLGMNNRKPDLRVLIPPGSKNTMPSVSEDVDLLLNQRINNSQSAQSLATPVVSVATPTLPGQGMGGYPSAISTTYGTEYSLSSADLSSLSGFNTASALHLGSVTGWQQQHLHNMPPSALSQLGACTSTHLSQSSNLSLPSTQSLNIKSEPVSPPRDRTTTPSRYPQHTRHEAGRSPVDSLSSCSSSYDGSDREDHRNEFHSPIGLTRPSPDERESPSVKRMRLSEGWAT
Nature of the experiment: Co-IP of Myc-tagged MEF2C and HA-tagged JP2NT in 293 cells. Type of experiment: binding. An excerpt:
The MEF2 family, master regulators of hypertrophic genes in cardiomyocytes, binds to the A/T enriched consensus sequence (C/TTA(A/T)4TA G/A), which shares the same core sequence with TATA box. Thus, it was hypothesized that JP2NT directly interacts with MEF2 binding sites.

The mark [4] stands for this setting: after TAB, relative to controls.

B1: JP2NT: shorter form of Junctophilin-2 including the first 565 amino acids of N-terminus of JP2 (protein, UniProt Q9BR39 1-565, looked up, fragment)
chain: MSGGRFDFDDGGAYCGGWEGGKAHGHGLCTGPKGQGEYSGSWNFGFEVAGVYTWPSGNTFEGYWSQGKRHGLGIETKGRWLYKGEWTHGFKGRYGIRQSSSSGAKYEGTWNNGLQDGYGTETYADGGTYQGQFTNGMRHGYGVRQSVPYGMAVVVRSPLRTSLSSLRSEHSNGTVAPDSPASPASDGPALPSPAIPRGGFALSLLANAEAAARAPKGGGLFQRGALLGKLRRAESRTSVGSQRSRVSFLKSDLSSGASDAASTASLGEAAEGADEAAPFEADIDATTTETYMGEWKNDKRSGFGVSERSSGLRYEGEWLDNLRHGYGCTTLPDGHREEGKYRHNVLVKDTKRRMLQLKSNKVRQKVEHSVEGAQRAAAIARQKAEIAASRTSHAKAKAEAAEQAALAANQESNIARTLARELAPDFYQPGPEYQKRRLLQEILENSESLLEPPDRGAGAAGLPQPPRESPQLHERETPRPEGGSPSPAGTPPQPKRPRPGVSKDGLLSPGAWNGEPSGEGSRSVTPSEGAGRRSPARPATERMAIEALQAPPAPSREPEVALYQG
modifications: GST or adenoviral forms
notes: shorter form of Junctophilin-2 including the first 565 amino acids of N-terminus of JP2
Regarding B1, the “association with chromatin (insoluble nuclear fraction)” value in experiment [1] is “detected in both soluble (S3) and chromatin containing insoluble (P4) nuclear fractions”. Also, the “cardiac function (ejection fraction)” value in experiment [2] (3 weeks after TAB, relative to controls) is given as “improved cardiac function”. Also, in experiment [2] (JP2NT OE mice), the “pressure overload induced heart failure” value was “resistant”. In experiment [2] (setting [4]), the “heart weight/body weight ratio” value is listed as “lower” and the “lung edema (lung weight/body weight ratio)” value is “reduced lung edema”. The “cardiac morphology or function at baseline” value in experiment [2] (baseline, no TAB) was “no effect”. Further, in experiment [3], the “interaction with MEF2C” value is reported as “interaction”.
